From PMC5741622, “Structure of a Wbl protein and implications for NO sensing by M. tuberculosis” (Nature Communications, 2017)

B1: Mycobacterium tuberculosis WhiB1, untagged, [4Fe-4S] form (holo-WhiB1), co-expressed with His-tagged σ^A or σ^ACTD (natural protein)
chain: MDWRHKAVCRDEDPELFFPVGNSGPALAQIADAKLVCNRCPVTTECLSWALNTGQDSGVWGGMSEDERRALKRRNARTKARTGV
modifications: [4Fe-4S] cluster coordinated by cysteine residues 9, 37, 40 and 46
notes: Iron-sulfur cluster assembled in vivo; free [4Fe-4S]; WhiB1 seen at 9668 Da and apo-WhiB1 at 9315 Da in native ESI-MS; also called [4Fe-4S]-WhiB1; untagged WhiB1
B3: His-tagged C-terminal domain (amino acids Ala447-Asp528) of M. tuberculosis σ^A (domain or fragment)
chain: AVDAVSFTLLQDQLQSVLDTLSEREAGVVRLRFGLTDGQPRTLDEIGQVYGVTRERIRQIESKTMSKLRHPSRSQVLRDYLD
notes: A thrombin cleavage site lies between the His6 tag and the domain; seen at 11,522 Da in native ESI-MS; also called His-σ^ACTD; σ^ACTD; not shown: His6, N-terminal, kept

Experiments:
[1] = target: B3; assay: native MS; details: both partners purified
[2] = target: T1, M. tuberculosis σ^ACTD fused to the T18 domain of Bordetella pertussis adenylate cyclase (Mycobacterium tuberculosis, UniProt P9WGI1 447-528); assay: two-hybrid; details: partners not purified
T1 construct: also called T18-σ^ACTD
T1 sequence: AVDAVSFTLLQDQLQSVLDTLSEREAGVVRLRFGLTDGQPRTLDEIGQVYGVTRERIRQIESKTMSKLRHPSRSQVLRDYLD

[3] = target: B1; assay: pull-down; details: partners not purified

Binder: B1
- stoichiometry N [1]: 1

B2: M. tuberculosis WhiB1 fused to the T25 domain of Bordetella pertussis adenylate cyclase (natural protein)
chain: MDWRHKAVCRDEDPELFFPVGNSGPALAQIADAKLVCNRCPVTTECLSWALNTGQDSGVWGGMSEDERRALKRRNARTKARTGV
notes: also called T25-WhiB1
- β-galactosidase activity against the negative control (vectors only) [2]: ~20 fold
- β-galactosidase activity against the positive control (Zip-Zip) [2]: ~3 fold lower

Binder: B3
- binding result [3]: binds
